Legend:
[1] = HR2D peptide release from the outer chitosan NP-layer in PBS and in 10% FBS; type: physicochemical; details: within 10 minutes
Experimental: FIGS. 3A-C show DNA-encapsulation and HR2D-release.
The NPs were characterized for the plasmid encapsulation and integrity following synthesis, HR2D peptide release from the outer chitosan NP-layer in PBS and in 10% FBS and their cell (FIG. 3). First, chitosan-DNA nanoparticles were prepared by a complex coacervation method. In order to determine the optimal formulation, nanoparticles of different Chitosan/pDNA ratios were prepared and characterized. The binding of pDNA to chitosan for the formulations prepared herein was analyzed by gel electrophoresis.
Chitosan/pDNA NPs were coated with a liposomal layer after co-extrusion of chitosan-pDNA NPs with pre-formed liposomes. This layer ensures the stability and integrity of the plasmid DNA and the endosomal escape and also allows for functionalization of the nanoparticle surface. The liposomal layer was then coated with another layer of chitosan complexed with fusion inhibitor HR2-D peptide.

RSV rA2-L19F = experiment: Inhibition of RSV rA2-L19F fusion by HR2D peptide in A549 cells; type: cell-based; details: A549 cells pre-treated with 5 or 20 μM 30 min before infection, MOI 0.1, 24 hours
Experimental: Fluorescence microscopy images of A549 cells pre-treated with 5 or 20 μM HR2D peptide 30 min before RFP-RSV-Ln19-A2 infection MOI 0.1 for 24 hours. RFP intensity quantified with ImageJ.
RFP intensity was quantified with ImageJ.

For “DACISQVNECINQSLAFICKSDELLCNT [HR2D peptide]”, the “peptide released from the outer layer” value [1] was 90% and the RFP expression (RSV rA2-L19F) was “significantly lower”.
